Source: patent US20130133089A1 (MEDICAL RESEARCH INFRASTRUCTURE AND HEALTH SERVICES FUND OF …, published 2013)
Values joined by “and” are separate entries in the source; they are usually repeats but may differ in a detail not shown here. Equal entries are not always repeated.

T1: Recombinant human leptin binding domain (hLBD) (human, UniProt P48357 428-635, biotinylated with Sulfo-NHS-LC-Biotin in the yeast display assays; not labelled when immobilized in the plate binding assay)
T1 construct: CRH2 sub-domain of the leptin receptor; Prepared in the applicants' laboratory; also called soluble human leptin receptor; CHR2
T1 sequence (looked up): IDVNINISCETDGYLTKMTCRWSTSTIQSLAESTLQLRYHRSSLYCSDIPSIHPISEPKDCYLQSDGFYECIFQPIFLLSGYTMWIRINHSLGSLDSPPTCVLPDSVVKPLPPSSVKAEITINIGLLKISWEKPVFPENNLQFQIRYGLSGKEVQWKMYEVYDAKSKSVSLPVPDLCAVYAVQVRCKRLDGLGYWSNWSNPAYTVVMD


What was measured:
[1] = target: long form of human leptin receptor (hLEPR) on BAF/3 or H-49 (HEK-293) cells (human), P48357; test: cell-based or functional assay
[2] = target: T1, Recombinant human leptin binding domain …; test: yeast display, flow cytometry titration with biotinylated hLBD (FIG. 4A)
From the text: (§1) Those 7 mouse leptin mutants were selected for preparation of respectively mutated leptins expressed in E. coli.

[3] = target: T1, Recombinant human leptin binding domain …; test: yeast display, flow cytometry titration with biotinylated hLBD (FIG. 4B)
From the text: as §1

Sequence of long form of human leptin receptor (hLEPR) on BAF/3 or H-49 (HEK-293) cells (human), P48357 (P48357 22-1165): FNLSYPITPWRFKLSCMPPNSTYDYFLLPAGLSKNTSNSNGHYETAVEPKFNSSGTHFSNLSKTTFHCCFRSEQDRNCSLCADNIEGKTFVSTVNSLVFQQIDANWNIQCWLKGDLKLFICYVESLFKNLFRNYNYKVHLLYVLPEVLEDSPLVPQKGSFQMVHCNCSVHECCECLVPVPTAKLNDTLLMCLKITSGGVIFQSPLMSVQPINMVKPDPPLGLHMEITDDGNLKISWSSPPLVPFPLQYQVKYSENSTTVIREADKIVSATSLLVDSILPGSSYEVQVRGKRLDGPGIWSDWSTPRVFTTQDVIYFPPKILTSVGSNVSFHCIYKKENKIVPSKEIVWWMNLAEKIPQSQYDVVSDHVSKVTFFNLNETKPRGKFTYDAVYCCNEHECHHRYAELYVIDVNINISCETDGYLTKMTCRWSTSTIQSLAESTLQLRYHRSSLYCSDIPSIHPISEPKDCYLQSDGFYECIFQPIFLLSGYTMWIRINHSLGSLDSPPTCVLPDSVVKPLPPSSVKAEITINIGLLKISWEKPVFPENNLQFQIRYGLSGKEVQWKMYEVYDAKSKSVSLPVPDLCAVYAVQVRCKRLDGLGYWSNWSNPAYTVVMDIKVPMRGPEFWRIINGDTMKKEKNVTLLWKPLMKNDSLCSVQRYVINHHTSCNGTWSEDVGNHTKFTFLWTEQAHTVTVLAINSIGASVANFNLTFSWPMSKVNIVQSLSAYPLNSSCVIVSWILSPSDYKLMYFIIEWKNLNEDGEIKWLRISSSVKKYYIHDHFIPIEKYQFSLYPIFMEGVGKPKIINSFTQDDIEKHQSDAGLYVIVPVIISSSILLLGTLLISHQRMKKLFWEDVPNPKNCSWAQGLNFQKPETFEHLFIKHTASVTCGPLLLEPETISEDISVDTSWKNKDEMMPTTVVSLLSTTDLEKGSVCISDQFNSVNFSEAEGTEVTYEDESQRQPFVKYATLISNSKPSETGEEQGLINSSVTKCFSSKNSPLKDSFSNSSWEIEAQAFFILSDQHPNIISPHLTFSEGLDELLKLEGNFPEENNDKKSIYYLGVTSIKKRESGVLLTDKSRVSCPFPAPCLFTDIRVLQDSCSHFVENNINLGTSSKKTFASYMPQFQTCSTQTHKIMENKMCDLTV

Binder	Kd [2]	Kd [3]	Bmax [3] [MFI]	Bmax [2] [MFI]	further results
human leptin super antagonist (SHLA), human leptin D23L/L39A/D40A/F41A, P41159 22-167 (ligand) VPIQKVQDDTKTLIKTIVTRINLISHTQSVSSKQKVTGAAAIPGLHPILTLSKMDQTLAVYQQILTSMPSQNVIQISNDLENLRDLLHVLAFSKSCHLPWASGLETLDSLGGVLEASGYSTEVVALSRLQGSLQDMLWQLDLSPGC					biological (inhibitory) activity, FIG. 12A: fold higher than that of HLA [1]: > 9 fold
superactive mouse leptin antagonist (SMLA), D23L/L39A/D40A/F41A mouse leptin, P41160 22-167 (ligand) VPIQKVQDDTKTLIKTLVTRINLISHTQSVSAKQRVTGAAAIPGLHPILSLSKMDQTLAVYQQVLTSLPSQNVLQIANDLENLRDLLHLLAFSKSCSLPQTSGLQKPESLDGVLEASLYSTEVVALSRLQGSLQDILQQVDLSPGC					BAF/3 bioassay: fold increase in bioactivity as compared to the WT mouse leptin antagonist [1]: 13.9 fold; Luciferase bioassay: fold increase in bioactivity as compared to the WT mouse leptin antagonist [1]: 13.4 fold; biological (inhibitory) activity, FIG. 12A: fold higher than that of HLA [1]: > 9 fold
wild type mouse leptin displayed on yeast as Aga2p fusion (ligand, UniProt P41160 22-167, looked up, not shown: large carriers; small tags and cut ends, mature; also called mlep wt; mlep, wt1) VPIQKVQDDTKTLIKTIVTRINDISHTQSVSAKQRVTGLDFIPGLHPILSLSKMDQTLAVYQQVLTSLPSQNVLQIANDLENLRDLLHLLAFSKSCSLPQTSGLQKPESLDGVLEASLYSTEVVALSRLQGSLQDILQQLDVSPEC	159 nM and 115 nM	95 nM and 95.7 nM			
pegylated superactive mouse leptin antagonist (PEG-SMLA), P41160 22-167 (ligand, here or on the partner: mPEG-propionyl-ALD 20 kDa, preferentially on the N-terminal amino group (85% monopegylated, ~9% double pegylated)) VPIQKVQDDTKTLIKTLVTRINLISHTQSVSAKQRVTGAAAIPGLHPILSLSKMDQTLAVYQQVLTSLPSQNVLQIANDLENLRDLLHLLAFSKSCSLPQTSGLQKPESLDGVLEASLYSTEVVALSRLQGSLQDILQQVDLSPGC					biological activity in H-49 cells: fold reduction as compared to the non-pegylated SMLA [1]: 9 fold
yeast-displayed mouse leptin clone H6 (D23G, V30D, Y119H) (ligand, UniProt P41160 22-167, looked up, not shown: large carriers; small tags and cut ends, mature) VPIQKVQDDTKTLIKTIVTRINGISHTQSDSAKQRVTGLDFIPGLHPILSLSKMDQTLAVYQQVLTSLPSQNVLQIANDLENLRDLLHLLAFSKSCSLPQTSGLQKPESLDGVLEASLHSTEVVALSRLQGSLQDILQQLDVSPEC		99.1 nM	1290		
yeast-displayed mouse leptin clone H12 (S97Y) (ligand, UniProt P41160 22-167, looked up, not shown: large carriers; small tags and cut ends, mature; also called H20; H24) VPIQKVQDDTKTLIKTIVTRINDISHTQSVSAKQRVTGLDFIPGLHPILSLSKMDQTLAVYQQVLTSLPSQNVLQIANDLENLRDLLHLLAFSKSCYLPQTSGLQKPESLDGVLEASLYSTEVVALSRLQGSLQDILQQLDVSPEC	130 nM	103 nM	785	961	
yeast-displayed mouse leptin clone H19 (D23G, T37A, G44D) (ligand, UniProt P41160 22-167, looked up, not shown: large carriers; small tags and cut ends, mature) VPIQKVQDDTKTLIKTIVTRINGISHTQSVSAKQRVAGLDFIPDLHPILSLSKMDQTLAVYQQVLTSLPSQNVLQIANDLENLRDLLHLLAFSKSCSLPQTSGLQKPESLDGVLEASLYSTEVVALSRLQGSLQDILQQLDVSPEC	104 nM	68.4 nM	966	968	
yeast-displayed mouse leptin clone H22 (T12I) (ligand, UniProt P41160 22-167, looked up, not shown: large carriers; small tags and cut ends, mature) VPIQKVQDDTKILIKTIVTRINDISHTQSVSAKQRVTGLDFIPGLHPILSLSKMDQTLAVYQQVLTSLPSQNVLQIANDLENLRDLLHLLAFSKSCSLPQTSGLQKPESLDGVLEASLYSTEVVALSRLQGSLQDILQQLDVSPEC	122 nM	82.3 nM	719	852	
yeast-displayed mouse leptin clone H2 (A125T, S132Y) (ligand, UniProt P41160 22-167, looked up, not shown: large carriers; small tags and cut ends, mature) VPIQKVQDDTKTLIKTIVTRINDISHTQSVSAKQRVTGLDFIPGLHPILSLSKMDQTLAVYQQVLTSLPSQNVLQIANDLENLRDLLHLLAFSKSCSLPQTSGLQKPESLDGVLEASLYSTEVVTLSRLQGYLQDILQQLDVSPEC		243 nM	2570		
yeast-displayed mouse leptin clone H7 (K11R, Q34R, T37A, F92C, S97Y, I136V) (ligand, UniProt P41160 22-167, looked up, not shown: large carriers; small tags and cut ends, mature; also called H18; H27) VPIQKVQDDTRTLIKTIVTRINDISHTQSVSAKRRVAGLDFIPGLHPILSLSKMDQTLAVYQQVLTSLPSQNVLQIANDLENLRDLLHLLACSKSCYLPQTSGLQKPESLDGVLEASLYSTEVVALSRLQGSLQDVLQQLDVSPEC	126 nM	83.5 nM	1140	1590	
yeast-displayed mouse leptin clone H16 (D23G, G112S) (ligand, UniProt P41160 22-167, looked up, not shown: large carriers; small tags and cut ends, mature) VPIQKVQDDTKTLIKTIVTRINGISHTQSVSAKQRVTGLDFIPGLHPILSLSKMDQTLAVYQQVLTSLPSQNVLQIANDLENLRDLLHLLAFSKSCSLPQTSGLQKPESLDSVLEASLYSTEVVALSRLQGSLQDILQQLDVSPEC		44 nM	550		
